According to article PMC5910400, “Genetically engineered two-warhead evasins provide a method to achieve precision targeting of disease-relevant chemokine subsets” (Scientific Reports, 2018):

B1: CCL3L1 (ligand, human, UniProt P16619 24-93, looked up)
chain: APLAADTPTACCFSYTSRQIPQNFIADYFETSSQCSKPSVIFLTKRGRQVCADPSEEWVQKYVSDLELSA
notes: source: bought: Peprotech
B2: P1243 (evasin from Amblyomma americanum), purified, C-terminal StrepII:8xHis tag (natural protein)
chain: ETGRNHTEDNSTEYYDYEEARCACPARHLNNTNGTVLKLLGCHYFCNGTLCTAPDGYPCYNLTAQQVRTLTTYPNTSCAVGVCMKGTCVKNGTMEQCFKTP
B3: CCL3 (ligand, human, UniProt P10147 24-92, looked up)
chain: SLAADTPTACCFSYTSRQIPQNFIADYFETSSQCSKPGVIFLTKRSRQVCADPSEEWVQKYVSDLELSA
notes: source: bought: Peprotech
B4: CCL1 (ligand, human, UniProt P22362 24-96, looked up)
chain: KSMQVPFSRCCFSFAEQEIPLRAILCYRNTSSICSNEGLIFKLKRGKEACALDTVGWVQRHRKMLRHCPSKRK
notes: source: bought: Peprotech
B5: CCL5 (ligand, human, UniProt P13501 24-91, looked up)
chain: SPYSSDTTPCCFAYIARPLPRAHIKEYFYTSGKCSNPAVVFVTRKNRQVCANPEKKWVREYINSLEMS
notes: source: bought: Peprotech
B6: CCL22 (ligand, human, UniProt O00626 25-93, looked up)
chain: GPYGANMEDSVCCRDYVRYRLPLRVVKHFYWTSDSCPRPGVVLLTFRDKEICADPRVPWVKMILNKLSQ
notes: source: bought: Peprotech

Experiments:
[1] = molecular target: B2; test: BLI; titration; evasin immobilised on the sensor through the C-terminal His tag; chemokine 300 nM to 0.4 nM (CXCL2: 600 nM to 1.2 nM), at least five concentrations; non-interacting reference protein; one-site binding fit or steady state analysis; details: both partners purified
CCL5 = molecular target: B5; test: cell-based or functional assay
CCL3L1 = molecular target: B1; test: cell-based or functional assay
CCL3 = molecular target: B3; test: cell-based or functional assay

Binder	binding result [1]	other results
B1	binds	
B2		mean IC50 (three biological replicates) of inhibition of THP-1 cell migration induced by the EC80 dose of CCL5 (CCL5): 8.9e-09 M; mean IC50 (three biological replicates) of inhibition of THP-1 cell migration induced by the EC80 dose of CCL3L1 (CCL3L1): 1e-09 M; mean IC50 (three biological replicates) of inhibition of THP-1 cell migration induced by the EC80 dose of CCL3 (CCL3): 6.5e-09 M
B3	binds	
B4	binds	
B5	binds	
B6	binds	
